The DeepSol protein solubility set

Test: soluble on expression in E. coli; label from the status in PepcDB or PDB records

## MSAKIYRPAKTAMQSGTAKTNVWVLEFDAEVPRKIDPIMGYTSSSDMKQQVKLTFETQEQAEAYAQRKGIEYRVILPKEATRKVVSYTDNFRFNRTQPWTHLEHHHHHH
  soluble on expression in E. coli: soluble

## MSSQVEHPAGGYKKLFETVEELSSPLTAHVTGRIPLWLTGSLLRCGPGLFEVGSEPFYHLFDGQALLHKFDFKEGHVTYHRRFIRTDAYVRAMTEKRIVITEFGTCAFPDPCKNIFSRFFSYFRGVEVTDNALVNIYPVGEDYYACTETNFITKVNPETLETIKQVDLCNYVSVNGATAHPHIENDGTVYNIGNCFGKNFSIAYNIVKIPPLQADKEDPISKSEIVVQFPCSDRFKPSYVHSFGLTPNYIVFVETPVKINLFKFLSSWSLWGANYMDCFESNETMGVWLHIADKKRKKYINNKYRTSPFNLFHHINTYEDHEFLIVDLCCWKGFEFVYNYSYLANLRENWEEVKKNARKAPQPEVRRYVLPLNIDKADTGKNLVTLPNTTATAILCSDETIWLEPEVLFSGPRQAFEFPQINYQKYGGKPYTYAYGLGLNHFVPDRLCKLNVKTKETWVWQEPDSYPSEPIFVSHPDALEEDDGVVLSVVVSPGAGQKPAYLLILNAKDLSEVARAEVEINIPVTFHGLFKKS
  soluble on expression in E. coli: soluble

## MGSDKIHHHHHHMSSPSLGTEQVFPQQALLDPVLLRAFVAVADSGSFTRAAAATHLTQSTVSQQLKRLEQQLGCELLSRKGRYAMPTADGERLLGYARQILALMAEAGMTPAQPPLLRLAVAEDFAGTALMPILKKLITRFPSVKLEVQSGLSKPLYQAFQEGVVELALIKQRQGEHPAKACWPEALSWLAAADWQAVKAGEPVPLIAFPAGGLYRNEMAQLLDEAGIPWRLVYSSNSLEGVLCAVAAGMGVSLLPSRFIRAREHREITALPRATAMELALHLASSPGAELQWLADEIGAYCDRLSSGGSSVSCPNTSA
  soluble on expression in E. coli: not soluble

## MSLHRSEKMKEIKEAYQQCGQIVGEYAPACFKALSYLPLKQRQASWAVLSFCHTAASADEKVLPAFEAKADHVYQRTNNGKQHLWKAFDHAYRTFTLESEPFREFIAAQKEDAKPYDDLDELLMYAYRTGGAAGLMLLPILTRRKQDQLKQAAVSLGLAIQLVRFLSDLGTDQQKNRIPRQVMQQFGYTEADLQKGTVNKAFTMTWEYIAFEAEAYLEECQDALPLFPQYSQKTVKAALHLHRAVLEKIRAKQHDVFQYHFALTETEVKQILSDIEGHHHHHH
  soluble on expression in E. coli: soluble

## MRSRERNRRPTLDELDRILTYFEQMRDRRRQEIDMLRVIVFALFSTRRQEEITRIRWDLLNESEQSALVTDMKNPGQKYGNDVWCHMPDEAWRVLQSMPKVADEVFPYNSRSVSASFTRACNFLEIEDLHFHDLRHDGVSRLFEMGWDIPKVASVSGHRDWNSMRRYTHLRGNGDPYAGWQWIERVISGPVIEAQVRVKRRAAGRAPLEHHHHHH
  soluble on expression in E. coli: not soluble

## GPGSMEGISEEQRQREEAEIRERDRKRQQEKEDYERRLAEAKAEEERKRREEEQLRLEEEKRKKRQEEEWKRLGSDAIQDLPPVPPPVAEEGALDMWYLDDETSQPPLSTASLKPGRKVGAPVITMKALRELGVVLFRVSMSDFSVVRQIIKEREYKHTDEVKISQTAKDDSFLERWYQEHYTEDEQFRVVMDGSFFLDIRSKQDEWIRVHVKAGDLVVLPAGIYHRATLDEDDYVALYRGFQDAPRFVPVKRSDSRADSNRVRLAYLMSLKKGDVATQNGFL
  soluble on expression in E. coli: soluble

## MTFEKIEEAYQLLLENCQLIENDLKTHIYDAIVEQNSFYLGAEGASPQVAQNSDKLKALCLTKEEWRKAYQFLFIKAAQTEQLQANHQFTPDAIGFILLYLLEQLSDKDSLEVLEIGSGTGNLAQTLLNNTSKSLDYVGIELDDLLIDLSASIAEIMDSSAHFIQEDAVRPQLLKESDIVISDLPVGYYPNDDIAKRYKVASSDKHTYAHHLLMEQSLKYLKKDGFAIFLAPVNLLTSPQSQLLKQWLKDYAQVVTLITLPDSIFGHPSNAKSIIVLQKQTDHPMETFVYPIRDLKLAENIHDFMENFKKWKLSNVN
  soluble on expression in E. coli: not soluble

## MHKDIKLVKETEIRKPIGSPFIVYFSSISNNTHRFIEKLGFQHKRIPVDITQSITVSNEYVLICPTYSGGGNQVEGAVPKQVIQFLNNKHNRELCRGVIASGNTNFGDTFCLAGTVISKKLNVPLLYQFELLGTKNDVEQTQKIIANFFQNSN
  soluble on expression in E. coli: soluble

## MESCITVIGERDVVLGFRLLGIQHTIIAEGKDLLKKFLEVFQNPQCNIIIVSENVKNMMDKRTLRSVEISSKPLVVFIPLPGVREEETIEEMAKRILGIDIGNVLEHHHHHH
  soluble on expression in E. coli: not soluble

## MAHHHHHHMRNVVQKYLCRKNNFPGFCSKRNVCTLSQKKNLSAYKIYTDGLLHSEFSTELKTTNEVNRLPIFRVLDTEGNLLDGHNAPFEEEEIVKLYKQMVEFSIWDEIFYGIQRQGRISFYIVNDGEEGIQFGLGKVLTPDDHLYCQYRETGILLSRGFDYADIINQLFGNKYDEGKGRQMCICYTSKKLNIHTITTPLASQLSHAAGCGYALKLKNEKAVAATFCGDGSSSEGDFYAALNFAAVRESQTMFICKNNLYAISTSIKDQYRGDGVAPRALALGIESVRVDGNDLFATYLAAKKMREICTEESKPVFMEFMAYRYGHHSTSDDSSLYRPKEENDAWKKEGVHPISRLFLYLKNKKLYTDKDDELHRKAIKEKVLKELKKHESIKRYNIVGGLFENVYHEEDWNLKEQRESFEQFFKQHKGCYDTSKFEG
  soluble on expression in E. coli: not soluble

## MGSDKIHHHHHHMDWLSKHYQQQKGYDELVGEGAVPRLPAAPLFDYLSTLDSSELRARRQAADAAILAMGITFTVYSEAGDIDRAWPFDIIPRILSRREWMRIEEGLKQRLQALNLFIDDIYNAQRIVVDGVFPAEVLASSRNFREACRGVHPPFGVWAHICGSDLVRDADGTVYVLEDNLRVPSGVSYMLENRQIMKRLFPELFKSSTILPVDDYPNRLYDTLAALSPREGERPVVAVLTPGIYNSAYFEHSYLAQQMGAYLAEGADFFVSRDDIVYLRTISGPQRVDVIYRRIDDEYMDPEVFFTDSALGIPGLLRAWRRGTVAIANAPGAGVADDKVVYAFVPDIIRYYLGAEPILPNVPTYLCMREADRDYVLSHLHELVVKPANESGGYGMLIGPRATSEERGRFAELIAANPRNYIAQPTLNLSTAPTLVEDHLEARHLDLRPFILQADKLYVTTGGLTRVAMQPGSLVVNSSQGGGSKDTWIVDEEAPCFRA
  soluble on expression in E. coli: not soluble

## MGSDKIHHHHHHMLPRQPRSRTSADCSGFPARYGGWLALLLSRLSRSAGKEPGCERGARPRTAMRGSHGSISCIATGCLLSSSAMIWTISDLHLSFARPKPMDIFGPGWKDHPERIAQAWRERVAATDWVLIAGDISWAMKLPDALLDLQWIDALPGTKVLIRGNHDYWCPRRVNSIRRHLPPSLRLIGADALDIGEAVVCGTRGWITPETPGFTETDLPIYQRELGLLERALAAGQALAVNKPLIVMIHFPPFVNRQPTEFSRRIAASGAAACIYGHLHRRYDWDNAVQGRVDGVYYQLTACDYLGFGPVAVRGLNGWSGG
  soluble on expression in E. coli: not soluble

## MRRGMTGLKTLAQQIALIWKNDPQQFESQAVAVMDAVKNRMPGRAKINVDVFSKLELSLRTSFDLQDGGFSGSPKFFNTPALNYLLERFYETGNEEILNFIGLTLKTISIRGIHDLVNGGFFRYSTDTMWIVPHFEKMLYTQTQLMKLFSKMFMLTRDNVYRDMIYDIKRFMDENLYWPGHGYYSGMDADVDGNEGGYYKWSFQDLKVALGQDFEAFRAIFDISEGGNYMDELYGQTGDNLIYFTGSFDEYRRSIEENGSTDMLSRSIEKLREAEKKRKKPSVDKKILTDLNGLAISSLSWAYRATGDKEFLDSAVSVSEFIIKNMIGDYLLHSFFEGSASVKSSLFDYAFLIRGLIDLYTITFDQKYLEEAKKLADEAIKFLFDGKFKLSEEIDDPQIADSEVESPYATIVADLDDLSLLTEDLQYHQIADQALTSVFDAVSRFPSAFPSLEHHHHHH
  soluble on expression in E. coli: not soluble

## MSTHGSLSEVERFNLLYKSSFNKVCNFACFYVRNKQASEDITMDAFLQLLETMKVESVDNPMALLITIVKHKSLDYLKTQVRREDTKDDLIQWKQRELAIRISNLEGCNPSYIFSQEIKSIVMKTLNQLPEQTKKVFIMNRFENKSGKEIAQTLGISVKGVDYHMNKALKELRAALKDYLPILTWLCFMNPINKG
  soluble on expression in E. coli: not soluble

## MKDNERRILLGRVVGGFGLRGEIKIESWTEPRDAIFRYQPWLLRSPTGTESMLNGARGYETGKRLIATFPGINDRNGVEAICGTEIYVPRSALPPPHPDEYYWVDLEGLQVHTLEGVVLGSVSHLFSNGANDVIVIHGERERLIPFVQPDYVKSVDFEAERIVVDWDPEFLEHHHHHH
  soluble on expression in E. coli: soluble

## MLRKDIGIDLGTANTLVFLRGKGIVVNEPSVIAIDSTTGEILKVGLEAKNMIGKTPATIKAIRPMRDGVIADYTVALVMLRYFINKAKGGMNLFKPRVVIGVPIGITDVERRAILDAGLEAGASKVFLIEEPMAAAIGSNLNVEEPSGNMVVDIGGGTTEVAVISLGSIVTWESIRIAGDEMDEAIVQYVRETYRVAIGERTAERVKIEIGNVFPSKENDELETTVSGIDLSTGLPRKLTLKGGEVREALRSVVVAIVESVRTTLEKTPPELVSDIIERGIFLTGGGSLLRGLDTLLQKETGISVIRSEEPLTAVAKGAGMVLDKVNILKKLQGAGGSHHHHHH
  soluble on expression in E. coli: soluble

## MGRCYNNIVIDASIEAVWQQIGNFHDMSWAKGVITSLVKVGPASGTEVGAKRILNDAIHETLVSLDSSNYTFTYSIDDGPDAIAKSAVDNYLGMVNLSESSTGVLVEWSSSFTSDNEKAVTEFCDPIYMALLGALKNSLRLEHHHHHH
  soluble on expression in E. coli: soluble

## MSDEDERHRKKMKRKTCTGDSKSPAKKKQKIKDKSEEKSHAVQKHDAIGGKADSTKTKVKLSGKDKDKGKISKSAHSTEWTENDKKSSSDGGKKQIKRNEKGQLLFKDHPEFTPNMTPKEVLQAGSFGGTYFRPIYSSITKKHYKDVWKELPEDWLDGLNIPEQVASSTYREKVNTYKVKCGGSLEMWESSGWIVPQDPYGWFQWYCRFYQGRRTEDDARQISRWSKCAGVKGRWRNNLITKVVRSGCAYDNVTVSPVVRQTLQHWGYKLTPEDYKQGAKRVKLK
  soluble on expression in E. coli: not soluble

## MIDKKTYNEIGVHIPSILLPKEGIDMQKWSVVACDQYTSEPEYWEEVEKKVGDNPSTLHLIFPEIYLEHGNADERIKRINNEMKRYINEGILVSQKPCMLLVDRSTPHTKSRKGLILAVDLEKYDYSAGSQTLIRATEGTVIERLPPRVKIRENAILELPHVMLLIDDPDKTVIEPLAGKLDSFEKVYDFELMMNGGHIRGYRIDDGETLKGILKAIEALADPEVFKSKYKVGDDKGVLLFAVGDGNHSLASAKVHWENVKKSLSEAEVEDHPARFALVEVVNVHDDGIVFEPIHRVLFNIEPESVLNALQDFFGSSCCSLEKFDSLESVNKRLSELKREEAVHSFGFVTDRSFGVFTVQNLKHNLEVATLQGFLDYYLGKQKEAKVDYIHGEDVVTKLGSKPGNIGFYLPSMEKHDLFKTVILDGVLPRKTFSMGEAEEKRFYLECRKIVKD
  soluble on expression in E. coli: soluble

## PFMDQSGGGVTFCGGEPLLHPEFLIDILKRCGQQGIHRAVDTTLLARKETVDEVMRNCELLLIDLKSMDSTVHQTFCDVPNELILKNIRRVAEADFPYYIRIPLIEGVNADEKNIKLSAEFLASLPRHPEIINLLPYHDIGKGKHAKLGSIYNPKGYKMQTPSEEVQQQCIQILTDYGLKATIGG
  soluble on expression in E. coli: soluble

## SLERYIDGRAVKADIFDHPVSYNINEITHTDDVHEALTASLNKYGNVDMAYMESLTDKSQSDLLEELRGRIFYNPLSKNYEIADRFISGNVMAKAEHIEEYLQSHPDNGEARISLEALRQSLPAPIPFEDLDFNFGERWIPAGVYSRYASWLFDTDVSVRYTASSDEYSIRADMTSPRIMNQYSVRSESRIFNGIALMRHAIHNTTPNITKTVLDKTGKEMKIRDPEVTLLANSKIDEIRNGFSDWLMEQSPEFKRKMADMYNRKFNCFVRPKYDGSHQSFPGLDLKGLGIPDLYPSQ
  soluble on expression in E. coli: not soluble
